Source: US20090311283A1
Read-outs that look alike come from different tables or passages of the source.

How the values were obtained:
HLA-DRB1*1501 (human) = target: T1, HLA-DRB1*1501 (human); assay: inhibition of 125I-labelled probe peptide binding to purified HLA-DR; gel filtration; settings: remark: other sources report otherwise
T1 chain 1: not shown
T1 chain 2: not shown

HLA-DRB5*0101 (human) = target: T2, HLA-DRB5*0101 (human); assay: as above; settings: remark: other sources report otherwise
T2 chain 1: not shown
T2 chain 2: not shown

HLA-DRB1*0802 (human) = target: T3, HLA-DRB1*0802 (human); assay: as above; settings: remark: other sources report otherwise
T3 chain 1: not shown
T3 chain 2: not shown

HLA-DRB1*1101 (human) = target: T4, HLA-DRB1*1101 (human); assay: as above; settings: remark: other sources report otherwise
T4 chain 1: not shown
T4 chain 2: not shown

HLA-DRB1*0405 (human) = target: T5, HLA-DRB1*0405 (human); assay: as above; settings: remark: other sources report otherwise
T5 chain 1: not shown
T5 chain 2: not shown

HLA-DRB1*0101 (human) [1] = target: T6, HLA-DRB1*0101 (human); assay: as above; settings: remark: other sources report otherwise
T6 chain 1: not shown
T6 chain 2: not shown

HLA-DRB1*1302 (human) = target: T7, HLA-DRB1*1302 (human); assay: as above; settings: remark: other sources report otherwise
T7 chain 1: not shown
T7 chain 2: not shown

HLA-DRB1*0401 (human) = target: T8, HLA-DRB1*0401 (human); assay: as above; settings: remark: other sources report otherwise
T8 chain 1: not shown
T8 chain 2: not shown

HLA-DRB1*0901 (human) = target: T9, HLA-DRB1*0901 (human); assay: as above; settings: remark: other sources report otherwise
T9 chain 1: not shown
T9 chain 2: not shown

HLA-DRB4*0101 (human) = target: T10, HLA-DRB4*0101 (human)
T10 chain 1: not shown
T10 chain 2: not shown

HLA-DRB1*0101 (human) [2] = target: T6, HLA-DRB1*0101 (human)
[3] = target: T11, HLA-DR1 (DRB1*0101) (human); assay: inhibition of 125I probe peptide binding to purified HLA-DR, gel filtration; settings: remark: other sources report otherwise
T11 chain 1: not shown
T11 chain 2: not shown

[4] = target: T12, HLA-DR5w11 (DRB1*1101) (human); assay: as above; settings: remark: other sources report otherwise
T12 chain 1: not shown
T12 chain 2: not shown

[5] = target: HLA-DR5w12 (DRB1*1201) (human); assay: competition with 125I probe peptide for purified HLA-DR, gel filtration
[6] = target: T11, HLA-DR1 (DRB1*0101) (human); assay: as above
[7] = target: T13, HLA-DR6w19 (DRB1*1302) (human); assay: as above
T13 chain 1: not shown
T13 chain 2: not shown

[8] = target: T14, HLA-DR8w2 (DRB1*0802) (human); assay: as above
T14 chain 1: not shown
T14 chain 2: not shown

[9] = target: T12, HLA-DR5w11 (DRB1*1101) (human); assay: as above
[10] = target: T15, HLA-DRw53 (DRB4*0101) (human); assay: as above
T15 chain 1: not shown
T15 chain 2: not shown

[11] = target: HLA-DR9 (DRB1*0901) (human); assay: as above
[12] = target: T16, HLA-DR4w4 (DRB1*0401) (human); assay: as above
T16 chain 1: not shown
T16 chain 2: not shown

[13] = target: T17, HLA-DR7 (DRB1*0701) (human); assay: as above
T17 chain 1: not shown
T17 chain 2: not shown

HLA-A*6802 (Human) [14] = settings: remark: other sources report otherwise
HLA-A*03 (human) = assay: competitive inhibition of 125I-labelled probe peptide binding to purified HLA, gel filtration; settings: remark: other sources report otherwise
HLA-A*6801 (human) = assay: inhibition of 125I-labelled probe peptide binding to purified HLA, gel filtration; settings: remark: other sources report otherwise
HLA-B*3501 (human) = assay: competition vs 125I probe peptide, purified HLA, gel filtration; settings: remark: other sources report otherwise
HLA-B*5401 (human) = assay: as above; settings: remark: other sources report otherwise
HLA-A*0201 (Human) = settings: remark: other sources report otherwise
HLA-A*0203 (Human) = settings: remark: other sources report otherwise
HLA-A*6802 (Human) [15] = settings: remark: other sources report otherwise; remark: listed apart in the source
HLA-B*0702 (human) = assay: competition vs 125I probe peptide, purified HLA, gel filtration; settings: remark: other sources report otherwise

GFFLLTRILTIPQSL (modifications not checked) [… (HBV ENV 181, 15-mer)] was tested, and the binding affinity ratio (IC50 of standard peptide / IC50 of test peptide) (HLA-DRB1*1501 (human)) was 0.015, the binding affinity ratio (IC50 of standard peptide / IC50 of test peptide) (HLA-DRB5*0101 (human)) was 0.011 and the binding affinity ratio (IC50 of standard peptide / IC50 of test peptide) (HLA-DRB1*0802 (human)) was 1.6. For the same binder, the binding affinity ratio (IC50 of standard peptide / IC50 of test peptide) (HLA-DRB1*1101 (human)) was 2.3, the binding affinity ratio (IC50 of standard peptide / IC50 of test peptide) (HLA-DRB1*0405 (human)) was 0.45 and the binding affinity ratio (IC50 of standard peptide / IC50 of test peptide) (HLA-DRB1*0101 (human) [1]) was 0.43. It also gave a binding affinity ratio (IC50 of standard peptide / IC50 of test peptide) (HLA-DRB1*1302 (human)) of 0.078, a binding affinity ratio (IC50 of standard peptide / IC50 of test peptide) (HLA-DRB1*0401 (human)) of 3.1 and a binding affinity ratio (IC50 of standard peptide / IC50 of test peptide) (HLA-DRB1*0901 (human)) of 0.55.

Work on AEDLNLGNLNVSIPW (modifications not checked) [… (HBV POL 38, 15-mer)] yielded a binding affinity ratio (IC50 of standard peptide / IC50 of test peptide) (HLA-DRB4*0101 (human)) of 0.017 and a binding affinity ratio (IC50 of standard peptide / IC50 of test peptide) (HLA-DRB1*0101 (human) [2]) of 0.0001.

Work on CSVVRRAFPHCLAFS (modifications not checked) [HBV POL peptide …] yielded a binding affinity ratio (relative to standard peptide) [3] of 0.1 and a binding affinity ratio (relative to standard peptide) [4] of 0.0008.

FVQWFVGLSPTVWLS (modifications not checked) [HBV ENV 342 peptide …] showed a relative binding (IC50 of standard peptide / IC50 of test peptide) [5] of 0.0021, a relative binding (IC50 of standard peptide / IC50 of test peptide) [6] of 0.47 and a relative binding (IC50 of standard peptide / IC50 of test peptide) [7] of 0.019. The relative binding (IC50 of standard peptide / IC50 of test peptide) [8] was 0.018, the relative binding (IC50 of standard peptide / IC50 of test peptide) [9] was 0.0072 and the relative binding (IC50 of standard peptide / IC50 of test peptide) [10] was 0.0044. The relative binding (IC50 of standard peptide / IC50 of test peptide) [11] was 0.041, the relative binding (IC50 of standard peptide / IC50 of test peptide) [12] was 0.013 and the relative binding (IC50 of standard peptide / IC50 of test peptide) [13] was 0.069.

For ILSTLPETTV (modifications not checked) [peptide 1069.14], the IC50 (HLA-A*6802 (Human) [14]) was 5.97 µM.

ILRGTSFVY (modifications not checked) [HBV POL 771 peptide 1.0205 (…)] showed an IC50 (HLA-A*03 (human)) of 0.25 µM.

Work on VSIPWTHK (modifications not checked) [HBV POL 50 peptide 26.0024 (VSIPWTHK)] yielded an IC50 (HLA-A*6801 (human)) of 20 µM.

With FPDHQLDPA (modifications not checked) [Peptide 16.0006 (HBV ENV 25, …)] the IC50 (HLA-B*3501 (human)) was 8 µM and the IC50 (HLA-B*5401 (human)) was 0.012 µM.

With FTFSPTYKA (modifications not checked) [HBV POL 656 …] the binding affinity ratio (IC50 of standard peptide / IC50 of test peptide) (HLA-A*0201 (Human)) was 0.0056, the binding affinity ratio (IC50 of standard peptide / IC50 of test peptide) (HLA-A*0203 (Human)) was 0.0031 and the binding affinity ratio (IC50 of standard peptide / IC50 of test peptide) (HLA-A*6802 (Human) [15]) was 7.3.

Binder VPSALNPA (modifications not checked) [Peptide 19.0016 (HBV POL 769, VPSALNPA)] has an IC50 (HLA-B*5401 (human)) of 0.01 µM and an IC50 (HLA-B*0702 (human)) of 3 µM.
